The results in this text go back to patent US9169481B2, “Cell-mediated directed evolution” (priority 2006, dated 2015).

Data set [1] relates to O=[N+]([O-])c1ccc(O[C@@H]2O[C@H](CO)[C@@H](O[C@@H]3O[C@H](CO)[C@@H](O)[C@H](O)[C@H]3O)[C@H](O)[C@H]2O)cc1. Put plainly: Steady-state kinetics of pNPC hydrolysis (release of p-nitrophenol), CelT = CelV. Type of data set: biochemical, Erwinia carotovora. The note with it: other: pNPC, pH 7, room temperature. The source says:
(§1) The DNA shuffling vector, pPPY2148, was constructed by digesting p425Met25 (ATCC) with HindIII and PstI and introducing an 800 bp stuffer flanked by SfiI sites. The catalytic domain of four family 5 cellulases with 77-90% sequence identity, E. carotovora CelN (Olsen et al., 1996, Biotechnology (N Y) 14:71-76), CelVI (Mae and Palva, 1995, Mol Gen Genet. 247:17-26), CelA (Park et al., 1997, Biochem Biophys Res Commun. 241:636-641) and CelT (cloned from the E. carotovora subs. atroceptica (Bell et al., 2004, Proc Natl Acad Sci USA. 101: 11105-11110) genomic DNA) were cloned into pPY2148 to create plasmids pPPY2230, pPPY2232, pPPY2234 and pPPY2236 respectively. A ^6His-tag was added at the C-terminus of the four parent genes to facilitate protein purification after selection. The catalytic domain of these cellulases was identified by sequence comparison with the catalytic domain of Bacillus agaradhaerens Cel5A, which has 68% sequence identity at the amino acid level with the parent genes and which three dimensional X-ray structure is available (Davies et al., 1998, Biochemistry 37: 1926-1932; Davies et al., 1998, Biochemistry 37: 11707-11713; Varrot et al., 2000, J Mol Biol. 297: 819-828; Varrot et al., 2001, Acta Crystallogr D Biol Crystallogr. 57: 1739-1742; Varrot and Davies, 2003, Acta Crystallogr D Biol Crystallogr. 59: 447-452). The cellulase genes were shuffled using standard procedures with slight variations (Zhao and Arnold, 1997, Nucleic Acids Res. 25: 1307-1308). To introduce the shuffled product into the shuffling vector via homologous recombination, 30 bp homology to the shuffling vector was introduced at the 5′ and 3′ end of the shuffled product by carrying an extra amplification step of the shuffling product primers VC1658-VC1659. 7.5 ng of shuffled product ([…] shuffled product molecules assuming each base pair is 330M and the shuffled product was 1000 bp) was used as a template in a 100 ul amplification reaction. The product was purified in a 2% agarose gel.
(§2) Ten colonies selected on day 8 and 9 were characterized in vitro using para-nitrophenyl cellobioside (pNPC) as a substrate. The cellulase chimeras were amplified from the shuffling vector using primers PPY100 and PPY103 and subcloned into the T7-expression vectors pAED4 between NdeI and HindIII sites. The cellulase chimeras were over expressed in E. coli and purified using a Nickel affinity column. Protein concentration was determined using the extinction coefficient of the parent genes ε=76890 and absorption at A280. To determine the kinetic constants for the hydrolysis of pNPC, the cellulase chimeras were incubated at room temperature in phosphate buffer (25 mM K2HPO4, 100 mM NaCl, pH=7) containing various concentrations of the substrate, and the release of p-nitrophenol (εpH=7=4000M^−1 cm^−1, A420) was recorded continuously in a SpectraMax Plus 384 spectrophotometer.
(§3) The three starting cellulases and the improved cellulase variants were subcloned into the E. coli T7 vector, pAED4, between NdeI and HindIII sites to give vectors pPPY2256 (CelN), pPPY2258 (CelA), pPPY2257 (CelV), pPPY2291 (Cel—3.7), and pPPY2292 (Cel—5.7). The cellulases were purified using Quick spin Ni-NTA affinity column (Qiagen). Protein concentration was determined using the extinction coefficient of the starting genes (ε=76670) and absorption at 280 nm. […] The release of p-nitrophenol (εpH 7=4000M−1 cm−1, A420) was recorded continuously in a SpectraMax Plus 384 spectrophotometer at 420 nm.

The test system is the same in data set [2]. Put plainly: Steady-state kinetics of pNPC hydrolysis (release of p-nitrophenol), CelN. The note with it: other: pNPC, pH 7, room temperature. Type of data set: biochemical, Erwinia carotovora.
Source text: as §1, §2, §3

As usually defined, the Km is the substrate concentration at which the rate is half of its maximum. A word on the kcat: it is the maximal rate divided by the concentration of active sites. In general, kcat/Km refers to the turnover number divided by the Michaelis constant. Regarding “Erwinia carotovora cellulase CelV (Cellulase V; = CelT, Cellulase T), catalytic domain, parent (Pectobacterium atrosepticum SCRI1043)”, in data set [1], the Km is 4.6 mM, the catalytic constant (kcat) was 1100 s⁻¹ and the kcat/Km amounted to 237000 M⁻¹ s⁻¹.

As for “Erwinia carotovora cellulase CelN (Cellulase N), catalytic domain, parent (Pectobacterium atrosepticum)”, in data set [2], the Km was 3.4 mM, the kcat is 1300 s⁻¹ and the kcat/Km was determined as 374000 M⁻¹ s⁻¹.
